B1: GLS3000 F55K (antibody, IgG1, name in Kabat numbering, V domains shown)
VH: QVQLVESGGGVVQPGRSLRLSCAASGFTFSNAWMHWVRQAPGKGLEWVAQIKAKSNNYATYYAESVKGRFTISRDDSKNSLYLQMNSLKTEDTAVYYCRYVHYGAYYGVDAWGQGTTVTVSS
VL: DIVMTQSPLSLPVTPGEPASISCRSSQSLVHSNRNTYLHWYQQKPGQAPRLLIYKVSNRKSGVPDRFSGSGSGTDFTLKISRVEAEDVGVYYCGQGTQVPYTFGQGTKLEIK
B2: GLS3000 G89A (antibody, IgG1, name in Kabat numbering, V domains shown)
VH: QVQLVESGGGVVQPGRSLRLSCAASGFTFSNAWMHWVRQAPGKGLEWVAQIKAKSNNYATYYAESVKGRFTISRDDSKNSLYLQMNSLKTEDTAVYYCRYVHYGAYYGVDAWGQGTTVTVSS
VL: DIVMTQSPLSLPVTPGEPASISCRSSQSLVHSNRNTYLHWYQQKPGQAPRLLIYKVSNRFSGVPDRFSGSGSGTDFTLKISRVEAEDVGVYYCAQGTQVPYTFGQGTKLEIK
B3: GLS3000 G89W (antibody, IgG1, name in Kabat numbering, V domains shown)
VH: QVQLVESGGGVVQPGRSLRLSCAASGFTFSNAWMHWVRQAPGKGLEWVAQIKAKSNNYATYYAESVKGRFTISRDDSKNSLYLQMNSLKTEDTAVYYCRYVHYGAYYGVDAWGQGTTVTVSS
VL: DIVMTQSPLSLPVTPGEPASISCRSSQSLVHSNRNTYLHWYQQKPGQAPRLLIYKVSNRFSGVPDRFSGSGSGTDFTLKISRVEAEDVGVYYCWQGTQVPYTFGQGTKLEIK
B4: GLS3000 G89Y (antibody, IgG1, name in Kabat numbering, V domains shown)
VH: QVQLVESGGGVVQPGRSLRLSCAASGFTFSNAWMHWVRQAPGKGLEWVAQIKAKSNNYATYYAESVKGRFTISRDDSKNSLYLQMNSLKTEDTAVYYCRYVHYGAYYGVDAWGQGTTVTVSS
VL: DIVMTQSPLSLPVTPGEPASISCRSSQSLVHSNRNTYLHWYQQKPGQAPRLLIYKVSNRFSGVPDRFSGSGSGTDFTLKISRVEAEDVGVYYCYQGTQVPYTFGQGTKLEIK
B5: CE115HA000 Y100A (antibody, name in Kabat numbering, V domains shown)
VH: QVQLVESGGGVVQPGRSLRLSCAASGFTFSNAWMHWVRQAPGKGLEWVAQIKAKSNNYATYYAESVKGRFTISRDDSKNSLYLQMNSLKTEDTAVYYCRYVHYGAAYGVDAWGQGTTVTVSS
VL: DIVMTQSPLSLPVTPGEPASISCRSSQSLVHSNRNTYLHWYQQKPGQAPRLLIYKVSNRFSGVPDRFSGSGSGTDFTLKISRVEAEDVGVYYCGQGTQVPYTFGQGTKLEIK
B6: CE115HA000 Y100D (antibody, name in Kabat numbering, V domains shown)
VH: QVQLVESGGGVVQPGRSLRLSCAASGFTFSNAWMHWVRQAPGKGLEWVAQIKAKSNNYATYYAESVKGRFTISRDDSKNSLYLQMNSLKTEDTAVYYCRYVHYGADYGVDAWGQGTTVTVSS
VL: DIVMTQSPLSLPVTPGEPASISCRSSQSLVHSNRNTYLHWYQQKPGQAPRLLIYKVSNRFSGVPDRFSGSGSGTDFTLKISRVEAEDVGVYYCGQGTQVPYTFGQGTKLEIK
B7: CE115HA000 Y100P (antibody, name in Kabat numbering, V domains shown)
VH: QVQLVESGGGVVQPGRSLRLSCAASGFTFSNAWMHWVRQAPGKGLEWVAQIKAKSNNYATYYAESVKGRFTISRDDSKNSLYLQMNSLKTEDTAVYYCRYVHYGAPYGVDAWGQGTTVTVSS
VL: DIVMTQSPLSLPVTPGEPASISCRSSQSLVHSNRNTYLHWYQQKPGQAPRLLIYKVSNRFSGVPDRFSGSGSGTDFTLKISRVEAEDVGVYYCGQGTQVPYTFGQGTKLEIK
B8: CE115HA000 Y100Q (antibody, name in Kabat numbering, V domains shown)
VH: QVQLVESGGGVVQPGRSLRLSCAASGFTFSNAWMHWVRQAPGKGLEWVAQIKAKSNNYATYYAESVKGRFTISRDDSKNSLYLQMNSLKTEDTAVYYCRYVHYGAQYGVDAWGQGTTVTVSS
VL: DIVMTQSPLSLPVTPGEPASISCRSSQSLVHSNRNTYLHWYQQKPGQAPRLLIYKVSNRFSGVPDRFSGSGSGTDFTLKISRVEAEDVGVYYCGQGTQVPYTFGQGTKLEIK
B9: CE115HA000 Y100V (antibody, name in Kabat numbering, V domains shown)
VH: QVQLVESGGGVVQPGRSLRLSCAASGFTFSNAWMHWVRQAPGKGLEWVAQIKAKSNNYATYYAESVKGRFTISRDDSKNSLYLQMNSLKTEDTAVYYCRYVHYGAVYGVDAWGQGTTVTVSS
VL: DIVMTQSPLSLPVTPGEPASISCRSSQSLVHSNRNTYLHWYQQKPGQAPRLLIYKVSNRFSGVPDRFSGSGSGTDFTLKISRVEAEDVGVYYCGQGTQVPYTFGQGTKLEIK
B10: CE115HA000 Y100W (antibody, name in Kabat numbering, V domains shown)
VH: QVQLVESGGGVVQPGRSLRLSCAASGFTFSNAWMHWVRQAPGKGLEWVAQIKAKSNNYATYYAESVKGRFTISRDDSKNSLYLQMNSLKTEDTAVYYCRYVHYGAWYGVDAWGQGTTVTVSS
VL: DIVMTQSPLSLPVTPGEPASISCRSSQSLVHSNRNTYLHWYQQKPGQAPRLLIYKVSNRFSGVPDRFSGSGSGTDFTLKISRVEAEDVGVYYCGQGTQVPYTFGQGTKLEIK
B11: CE115HA000 Y100aF (antibody, name in Kabat numbering, V domains shown)
VH: QVQLVESGGGVVQPGRSLRLSCAASGFTFSNAWMHWVRQAPGKGLEWVAQIKAKSNNYATYYAESVKGRFTISRDDSKNSLYLQMNSLKTEDTAVYYCRYVHYGAYFGVDAWGQGTTVTVSS
VL: DIVMTQSPLSLPVTPGEPASISCRSSQSLVHSNRNTYLHWYQQKPGQAPRLLIYKVSNRFSGVPDRFSGSGSGTDFTLKISRVEAEDVGVYYCGQGTQVPYTFGQGTKLEIK
B12: CE115HA000 Y100aG (antibody, name in Kabat numbering, V domains shown)
VH: QVQLVESGGGVVQPGRSLRLSCAASGFTFSNAWMHWVRQAPGKGLEWVAQIKAKSNNYATYYAESVKGRFTISRDDSKNSLYLQMNSLKTEDTAVYYCRYVHYGAYGGVDAWGQGTTVTVSS
VL: DIVMTQSPLSLPVTPGEPASISCRSSQSLVHSNRNTYLHWYQQKPGQAPRLLIYKVSNRFSGVPDRFSGSGSGTDFTLKISRVEAEDVGVYYCGQGTQVPYTFGQGTKLEIK
B13: CE115HA000 Y100aH (antibody, name in Kabat numbering, V domains shown)
VH: QVQLVESGGGVVQPGRSLRLSCAASGFTFSNAWMHWVRQAPGKGLEWVAQIKAKSNNYATYYAESVKGRFTISRDDSKNSLYLQMNSLKTEDTAVYYCRYVHYGAYHGVDAWGQGTTVTVSS
VL: DIVMTQSPLSLPVTPGEPASISCRSSQSLVHSNRNTYLHWYQQKPGQAPRLLIYKVSNRFSGVPDRFSGSGSGTDFTLKISRVEAEDVGVYYCGQGTQVPYTFGQGTKLEIK
B14: CE115HA000 Y100aQ (antibody, name in Kabat numbering, V domains shown)
VH: QVQLVESGGGVVQPGRSLRLSCAASGFTFSNAWMHWVRQAPGKGLEWVAQIKAKSNNYATYYAESVKGRFTISRDDSKNSLYLQMNSLKTEDTAVYYCRYVHYGAYQGVDAWGQGTTVTVSS
VL: DIVMTQSPLSLPVTPGEPASISCRSSQSLVHSNRNTYLHWYQQKPGQAPRLLIYKVSNRFSGVPDRFSGSGSGTDFTLKISRVEAEDVGVYYCGQGTQVPYTFGQGTKLEIK
B15: CE115HA000 Y100aS (antibody, name in Kabat numbering, V domains shown)
VH: QVQLVESGGGVVQPGRSLRLSCAASGFTFSNAWMHWVRQAPGKGLEWVAQIKAKSNNYATYYAESVKGRFTISRDDSKNSLYLQMNSLKTEDTAVYYCRYVHYGAYSGVDAWGQGTTVTVSS
VL: DIVMTQSPLSLPVTPGEPASISCRSSQSLVHSNRNTYLHWYQQKPGQAPRLLIYKVSNRFSGVPDRFSGSGSGTDFTLKISRVEAEDVGVYYCGQGTQVPYTFGQGTKLEIK

Key:
CD3ε homodimer protein [1] = target: T1, CD3ε homodimer protein (human, UniProt P07766 23-126, limits assumed); assay: SPR, CD3e immobilized
T1 construct: Whole entry named for the human CD3 epsilon chain
Description: Each one-amino acid altered form constructed, expressed, and purified in the paragraph (6-2) was evaluated using Biacore T200 (GE Healthcare Japan Corp.). An appropriate amount of CD3ε homodimer protein was immobilized onto Sensor chip CM4 (GE Healthcare Japan Corp.) by the amine coupling method. Then, the antibody having an appropriate concentration was injected thereto as an analyte and allowed to interact with the CD3ε homodimer protein on the sensor chip. Then, the sensor chip was regenerated by the injection of 10 mmol/L glycine-HCl (pH 1.5). The assay was conducted at 25° C., and HBS-EP+ (GE Healthcare Japan Corp.) was used as a running buffer. […] Each parameter was calculated using Biacore T200 Evaluation Software (GE Healthcare Japan Corp.).
Specifically, when the amount of the GLS3000-containing antibody bound was defined as X and the amount of the L chain one-amino acid altered form bound was defined as Y, a value of Z (ratio of amounts bound)=Y/X was used.

CD3ε homodimer protein [2] = target: T2, CD3ε homodimer protein (human, UniProt P07766 23-126, limits assumed, sulfo-tag or biotin label in some ECL assays); assay: SPR, CD3ε homodimer on chip;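 also: biacore SPR with antibody variants flowed as analyte over amine-coupled CD3ε homodimer on a CM chip, bound amount of each single-residue H chain variant over that of parent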
T2 construct: also called human CD3ε homodimer protein; CD3 (CD3ε)
T2 sequence (P07766 23-126 limits assumed): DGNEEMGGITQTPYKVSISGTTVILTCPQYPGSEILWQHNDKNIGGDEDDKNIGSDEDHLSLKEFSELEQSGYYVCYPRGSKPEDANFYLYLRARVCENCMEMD
Description: An appropriate amount of CD3ε homodimer protein was immobilized onto Sensor chip CM4 (GE Healthcare Japan Corp.) by the amine coupling method. Then, the antibody having an appropriate concentration was injected thereto as an analyte and allowed to interact with the CD3ε homodimer protein on the sensor chip. Then, the sensor chip was regenerated by the injection of 10 mmol/L glycine-HCl (pH 1.5). The assay was conducted at 25° C., and HBS-EP+ (GE Healthcare Japan Corp.) was used as a running buffer. […] Each parameter was calculated using Biacore T200 Evaluation Software (GE Healthcare Japan Corp.).
Specifically, when the amount of the antibody comprising CE115HA000 bound was defined as X and the amount of the H chain one-amino acid altered form bound was defined as Y, a value of Z (ratio of amounts bound)=Y/X was used.

T1 sequence (P07766 23-126 limits assumed): as above

Binder | KD ratio to GLS3000 (CD3ε homodimer protein [1]) | ratio of amounts bound vs CE115HA000 (CD3ε homodimer protein [2])
B1 | 1.22 | 
B2 | 1.3 | 
B3 | 2.3 | 
B4 | 1.32 | 
B5 |  | 9.9
B6 |  | 0.52
B7 |  | 0.48
B8 |  | 0.8
B9 |  | 0.8
B10 |  | 1.03
B11 |  | 0.87
B12 |  | 1.23
B13 |  | 0.9
B14 |  | 0.56
B15 |  | 0.64
